The target of data set [1] is T1, IRDBP-1 C-terminal 1503 bp coding region (Trx-IRDBP-1) (Rattus norvegicus, UniProt Q5ZQU0 SEQ:548-1047). The data set is described as follows: EMSA; self-competed; supershifted by anti-IRDBP-1 cAb; printed probe sequence from Example 7. Particulars: tags: His6-thioredoxin fusion (pET-32a). The source says: (§1) This band was competed by the IGFBP-3 IRE, but not by the unrelated NFκB oligonucleotide (FIG. 26, left panel). In addition, the gel-shift band was supershifted with the anti-IRDBP-1 cAb antibody, but not with preimmune serum (FIG. 26, right panel).
T1 sequence (Q5ZQU0 904-1403): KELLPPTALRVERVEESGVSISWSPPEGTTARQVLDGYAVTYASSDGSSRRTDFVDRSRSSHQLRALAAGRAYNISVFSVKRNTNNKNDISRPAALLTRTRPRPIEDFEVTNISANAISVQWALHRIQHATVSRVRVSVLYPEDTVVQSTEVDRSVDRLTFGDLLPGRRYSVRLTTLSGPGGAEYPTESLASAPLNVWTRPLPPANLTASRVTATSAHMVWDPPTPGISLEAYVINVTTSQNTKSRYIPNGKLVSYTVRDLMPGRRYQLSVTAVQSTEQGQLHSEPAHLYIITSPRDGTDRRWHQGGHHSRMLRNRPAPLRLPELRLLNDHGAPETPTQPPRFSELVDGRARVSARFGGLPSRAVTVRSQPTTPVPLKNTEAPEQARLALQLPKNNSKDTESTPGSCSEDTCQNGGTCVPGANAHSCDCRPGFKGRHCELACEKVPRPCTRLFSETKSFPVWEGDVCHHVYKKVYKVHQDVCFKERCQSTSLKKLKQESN

Data set [2] concerns the target T1, IRDBP-1 C-terminal 1503 bp coding …. The data set can be described thus: competition; did not compete IGFBP-3 IRE band. Particulars: tags: His6-thioredoxin fusion (pET-32a).
Source text: as §1

B1: IGFBP-3 IRE oligo (Example 7) (dsDNA)
DNA 1: AATTCAAGGGTATCCAGGAAAGTCTCCTTCAAG
DNA 2: CTTGAAGGAGACTTTCCTGGATACCCTTGAATT
Turning to B1, the binding result in data set [1] is given as “binds”.

B2: NFkB consensus (dsDNA)
DNA 1: GGGACTTTCCGGGACTTTCC
DNA 2: GGAAAGTCCCGGAAAGTCCC
Take B2: in data set [2], the binding result is reported as “no binding”.
